First the molecules themselves.
T1: recombinant human C1r2s2 tetramer (human, UniProt P09871 16-688; P00736 18-705)
T1 construct: C1s and C1r co-expressed in HEK293/FreeStyle 293-F and purified from conditioned medium
T1 chain 1: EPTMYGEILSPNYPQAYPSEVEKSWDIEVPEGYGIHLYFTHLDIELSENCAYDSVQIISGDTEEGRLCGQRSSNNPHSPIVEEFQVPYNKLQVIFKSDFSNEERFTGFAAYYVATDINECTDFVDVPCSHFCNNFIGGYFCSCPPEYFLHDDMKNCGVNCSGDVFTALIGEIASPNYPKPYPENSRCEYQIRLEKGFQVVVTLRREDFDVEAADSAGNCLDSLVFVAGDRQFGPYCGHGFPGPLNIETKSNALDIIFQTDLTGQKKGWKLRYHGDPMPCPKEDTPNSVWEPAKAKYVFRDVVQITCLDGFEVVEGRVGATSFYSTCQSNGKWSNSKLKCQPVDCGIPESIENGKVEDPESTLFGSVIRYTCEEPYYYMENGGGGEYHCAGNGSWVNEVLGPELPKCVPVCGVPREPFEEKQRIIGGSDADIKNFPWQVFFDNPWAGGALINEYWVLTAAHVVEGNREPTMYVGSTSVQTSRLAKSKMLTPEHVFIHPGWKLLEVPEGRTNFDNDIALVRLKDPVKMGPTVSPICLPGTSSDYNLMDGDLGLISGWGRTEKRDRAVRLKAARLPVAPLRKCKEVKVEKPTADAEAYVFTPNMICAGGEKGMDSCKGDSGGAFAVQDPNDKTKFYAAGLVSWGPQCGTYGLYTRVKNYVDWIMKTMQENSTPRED
T1 chain 2: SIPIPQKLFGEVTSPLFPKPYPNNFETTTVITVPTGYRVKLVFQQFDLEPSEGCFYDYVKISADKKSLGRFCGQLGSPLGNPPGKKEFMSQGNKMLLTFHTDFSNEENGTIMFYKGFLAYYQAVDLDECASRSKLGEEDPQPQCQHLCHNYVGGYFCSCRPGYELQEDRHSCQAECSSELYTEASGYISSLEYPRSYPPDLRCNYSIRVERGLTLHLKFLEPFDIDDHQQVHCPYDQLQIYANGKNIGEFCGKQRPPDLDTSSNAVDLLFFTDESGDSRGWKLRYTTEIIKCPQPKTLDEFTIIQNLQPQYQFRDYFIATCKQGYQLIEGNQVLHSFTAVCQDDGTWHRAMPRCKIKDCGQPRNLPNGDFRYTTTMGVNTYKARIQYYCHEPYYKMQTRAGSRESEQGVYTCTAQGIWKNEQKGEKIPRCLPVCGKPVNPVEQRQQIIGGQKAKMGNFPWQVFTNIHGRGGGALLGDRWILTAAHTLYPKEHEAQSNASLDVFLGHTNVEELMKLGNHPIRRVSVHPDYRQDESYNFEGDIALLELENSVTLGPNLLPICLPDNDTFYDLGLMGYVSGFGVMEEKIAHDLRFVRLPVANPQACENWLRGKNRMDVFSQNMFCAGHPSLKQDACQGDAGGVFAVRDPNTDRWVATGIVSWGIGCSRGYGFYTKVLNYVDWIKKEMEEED

B1: AL0742 (antibody, human IgG1, kappa, V domains shown)
VH: QVQLVESGGGVVQPGRSLRLSCAASGFTFSAYAMNWIRQPPGKGLEWIGLIYGSGSTFYASWAKGRVTISVDTSKNQFSLKLSSVTAADTAVYYCARGRSVNYNSDFHLWGQGTLVTVSS
VL: DIQMTQSPSSLSASVGDRVTITCQASQSLHDKKNLAWYQQKPGQPPKLLIYGASTLESGVPSRFSGSGSGTDFTLTISSLQPEDFATYYCQGEFSWSSADRNTFGQGTKVEIKR
notes: COS0637temp with VL C94W/C95dR (Kabat), already in the VL entry
B2: AL0745 (antibody, human IgG1, kappa, V domains shown)
VH: QVQLVESGGGVVQPGRSLRLSCAASGFTFSAYAMNWIRQPPGKGLEWIGLIYGSGSTFYASWAKGRVTISVDTSKNQFSLKLSSVTAADTAVYYCARGRSVNYNSDFHLWGQGTLVTVSS
VL: DIQMTQSPSSLSASVGDRVTITCQASQSLHDKKNLAWYQQKPGQPPKLLIYGASTLESGVPSRFSGSGSGTDFTLTISSLQPEDFATYYCQGEFSESSADLNTFGQGTKVEIKR
notes: COS0637temp with VL C94E/C95dL (Kabat), already in the VL entry
B3: AL0750 (antibody, human IgG1, kappa, V domains shown)
VH: QVQLVESGGGVVQPGRSLRLSCAASGFTFSAYAMNWIRQPPGKGLEWIGLIYGSGSTFYASWAKGRVTISVDTSKNQFSLKLSSVTAADTAVYYCARGRSVNYNSDFHLWGQGTLVTVSS
VL: DIQMTQSPSSLSASVGDRVTITCQASQSLHDKKNLAWYQQKPGQPPKLLIYGASTLESGVPSRFSGSGSGTDFTLTISSLQPEDFATYYCQGEFSMSSADLNTFGQGTKVEIKR
notes: COS0637temp with VL C94M/C95dL (Kabat), already in the VL entry
B4: AL0748 (antibody, human IgG1, kappa, V domains shown)
VH: QVQLVESGGGVVQPGRSLRLSCAASGFTFSAYAMNWIRQPPGKGLEWIGLIYGSGSTFYASWAKGRVTISVDTSKNQFSLKLSSVTAADTAVYYCARGRSVNYNSDFHLWGQGTLVTVSS
VL: DIQMTQSPSSLSASVGDRVTITCQASQSLHDKKNLAWYQQKPGQPPKLLIYGASTLESGVPSRFSGSGSGTDFTLTISSLQPEDFATYYCQGEFSISSADFNTFGQGTKVEIKR
notes: COS0637temp with VL C94I/C95dF (Kabat), already in the VL entry
B5: AL0747 (antibody, human IgG1, kappa, V domains shown)
VH: QVQLVESGGGVVQPGRSLRLSCAASGFTFSAYAMNWIRQPPGKGLEWIGLIYGSGSTFYASWAKGRVTISVDTSKNQFSLKLSSVTAADTAVYYCARGRSVNYNSDFHLWGQGTLVTVSS
VL: DIQMTQSPSSLSASVGDRVTITCQASQSLHDKKNLAWYQQKPGQPPKLLIYGASTLESGVPSRFSGSGSGTDFTLTISSLQPEDFATYYCQGEFSMSSADRNTFGQGTKVEIKR
notes: COS0637temp with VL C94M/C95dR (Kabat), already in the VL entry
B6: AL0746 (antibody, human IgG1, kappa, V domains shown)
VH: QVQLVESGGGVVQPGRSLRLSCAASGFTFSAYAMNWIRQPPGKGLEWIGLIYGSGSTFYASWAKGRVTISVDTSKNQFSLKLSSVTAADTAVYYCARGRSVNYNSDFHLWGQGTLVTVSS
VL: DIQMTQSPSSLSASVGDRVTITCQASQSLHDKKNLAWYQQKPGQPPKLLIYGASTLESGVPSRFSGSGSGTDFTLTISSLQPEDFATYYCQGEFSRSSADYNTFGQGTKVEIKR
notes: COS0637temp with VL C94R/C95dY (Kabat), already in the VL entry
B7: AL0752 (antibody, human IgG1, kappa, V domains shown)
VH: QVQLVESGGGVVQPGRSLRLSCAASGFTFSAYAMNWIRQPPGKGLEWIGLIYGSGSTFYASWAKGRVTISVDTSKNQFSLKLSSVTAADTAVYYCARGRSVNYNSDFHLWGQGTLVTVSS
VL: DIQMTQSPSSLSASVGDRVTITCQASQSLHDKKNLAWYQQKPGQPPKLLIYGASTLESGVPSRFSGSGSGTDFTLTISSLQPEDFATYYCQGEFSVSSADANTFGQGTKVEIKR
notes: COS0637temp with VL C94V/C95dA (Kabat), already in the VL entry
B8: AL0753 (antibody, human IgG1, kappa, V domains shown)
VH: QVQLVESGGGVVQPGRSLRLSCAASGFTFSAYAMNWIRQPPGKGLEWIGLIYGSGSTFYASWAKGRVTISVDTSKNQFSLKLSSVTAADTAVYYCARGRSVNYNSDFHLWGQGTLVTVSS
VL: DIQMTQSPSSLSASVGDRVTITCQASQSLHDKKNLAWYQQKPGQPPKLLIYGASTLESGVPSRFSGSGSGTDFTLTISSLQPEDFATYYCQGEFSVSSADVNTFGQGTKVEIKR
notes: COS0637temp with VL C94V/C95dV (Kabat), already in the VL entry
B9: AL0749 (antibody, human IgG1, kappa, V domains shown)
VH: QVQLVESGGGVVQPGRSLRLSCAASGFTFSAYAMNWIRQPPGKGLEWIGLIYGSGSTFYASWAKGRVTISVDTSKNQFSLKLSSVTAADTAVYYCARGRSVNYNSDFHLWGQGTLVTVSS
VL: DIQMTQSPSSLSASVGDRVTITCQASQSLHDKKNLAWYQQKPGQPPKLLIYGASTLESGVPSRFSGSGSGTDFTLTISSLQPEDFATYYCQGEFSLSSADRNTFGQGTKVEIKR
notes: COS0637temp with VL C94L/C95dR (Kabat), already in the VL entry
B10: AL0751 (antibody, human IgG1, kappa, V domains shown)
VH: QVQLVESGGGVVQPGRSLRLSCAASGFTFSAYAMNWIRQPPGKGLEWIGLIYGSGSTFYASWAKGRVTISVDTSKNQFSLKLSSVTAADTAVYYCARGRSVNYNSDFHLWGQGTLVTVSS
VL: DIQMTQSPSSLSASVGDRVTITCQASQSLHDKKNLAWYQQKPGQPPKLLIYGASTLESGVPSRFSGSGSGTDFTLTISSLQPEDFATYYCQGEFSASSADVNTFGQGTKVEIKR
notes: COS0637temp with VL C94A/C95dV (Kabat), already in the VL entry

This note sets out measurements from patent publication US20240092889A1 (Chugai, published 2024).

This assay deals with T1, recombinant human C1r2s2 tetramer. Put plainly: SPR (BIACORE), antibody captured by ProL, human C1r2s2 injected at 100 nM, pH 7.4, 37 C. As for the experimental part: Analysis of interaction between antibody variants and the human C1r2s2 prepared as mentioned above was carried out at pH7.4, at 37 degrees C. using BIACORE® T200 instrument (GE Healthcare) or BIACORE® 4000 (GE Healthcare). ProL (BioVision) was immobilized onto a CM4 sensorchip using amine coupling kit (GE Healthcare) according to the recommended settings by GE Healthcare. Antibodies and analytes were diluted into the respective running buffers, ACES pH7.4 (20 mM ACES (N-(2-Acetamido)-2-aminoethanesulfonic acid), 150 mM NaCl, 1.2 mM CaCl2, 1 mg/ml bovine serum albumin (BSA), 1 mg/ml CMD (CM-Dextran sodium salt), 0.05% Tween® 20 (polysorbate 20), 0.005 w/v % NaN3). Each antibody was captured onto the sensor surface by ProL. Antibody capture levels were aimed at 200 resonance units (RU). Then, recombinant human C1r2s2 was injected at concentrations of 25 and 100 nM followed by dissociation at pH7.4. The surface was regenerated using 10 mM Glycine-HCl, pH1.5.
On the technique in general: In SPR one partner is held on a chip, and binding of the other changes the refractive index at the surface.
In the case of B1, the binding result is recorded as “no binding (tested: 100 nM)”. As to B2, the binding result is reported as “no binding (tested: 100 nM)”.

B3: the binding result is “no binding (tested: 100 nM)”. The value for B4 was “no binding (tested: 100 nM)”; that for B5 was “no binding (tested: 100 nM)”. The value for B6 was “no binding (tested: 100 nM)”.

B7: the binding result is “no binding (tested: 100 nM)”. The value for B8 was “no binding (tested: 100 nM)”; that for B9 was “no binding (tested: 100 nM)”; that for B10 was “no binding (tested: 100 nM)”.
